Measurements published in the supplement of paper PMC12764529.
± gives the half width of the 95% confidence interval.

Experiments:
[1] = folding stability dG unfold from chymotrypsin proteolysis; higher = more stable
Outline: (§1)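 Unfolding free energy was derived, per protease or combined, against a sequence-predicted unfolded-state K50 and a shared folded-state K50, starting from K50 inferred by Bayesian fitting of sequencing counts. Digestion with trypsin and chymotrypsin was carried out on designed mini-proteins under 80 residues without cysteine in a PA-tagged cDNA display construct. Only designs with AlphaFold2 dimer inter-PAE above 15 were kept.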

[2] = folding stability dG unfold from trypsin proteolysis; higher = more stable
Outline: as §1

[3] = folding stability dG unfold (combined trypsin and chymotrypsin); higher = more stable
Outline: as §1

Row | Sequence | folding stability dG unfold [1] | folding stability dG unfold [2] | folding stability dG unfold [3]
1 | STLPPGATRTFEFTDPATGKKITVTLTRLPDGTVRVTLTTTDPATGKTTTETFTLPGETLEALLALVEESSA [r9_618_JUSTAS] | 4.86 ± 0.12 kcal/mol | 4.28 ± 0.22 kcal/mol | 4.68 ± 0.16 kcal/mol
2 | SAGGSAGGPPVEERELTLPDGTRLTITRYPDSYTVEVTLPDGTVETRTYPDVTPEEAVAAVKAASAGGSAGG [r6_459_JUSTAS] | 1.927 ± 0.013 kcal/mol | 1.68 ± 0.043 kcal/mol | 1.85 ± 0.051 kcal/mol
3 | SAGGMLVRVTLPSGETVELPVTSLDAAARRLREELGLPAGARLRVEVYDPVTGEVTEYELVIPVPEPVSAGG [r13_145_TrMRF] | 4.33 ± 0.062 kcal/mol | 4.92 ± 0.18 kcal/mol | 4.68 ± 0.1 kcal/mol
4 | SAGGSAGGMKKYKMTITFKTPDGTPVKEKTIYFNSEEEAKKAAEEIKKKELEPDTPVTVSKEPDSAGGSAGG [r6_286_JUSTAS] | 1.13 ± 0.071 kcal/mol | 0.425 ± 0.05 kcal/mol | 0.898 ± 0.069 kcal/mol
5 | SAGGSAGGSAGSKDTMYLLKVKDLGENELKETYIEVPAEKVQEVIDALSSDPNLEIEVIPSAGGSAGGSAGG [r17_50_TrMRF] | 1.09 ± 0.054 kcal/mol | 1.06 ± 0.041 kcal/mol | 1.11 ± 0.064 kcal/mol
6 | SAGGMNVTVTVELVPLPDEPVLFVTVETEDGSVSVITFDPATGTATVLKVSPTKTEITTVPAEDILLASAGG [r13_328_TrMRF] | 2.79 ± 0.11 kcal/mol | 1.8 ± 0.13 kcal/mol | 2.43 ± 0.2 kcal/mol
7 | SAGGSSMQTTVFILPGPEVPVEEVKAKIAKELGLDFETVTFIPAPSREEAEALAAALGVDGIIVEVDSAGGS [r8_245_JUSTAS] | 2.662 ± 0.013 kcal/mol | 2.43 ± 0.053 kcal/mol | 2.58 ± 0.052 kcal/mol
8 | SAGGSAFPTIAESPGVVKIEPLPDGTIKITFNTSEEAKEKIIEELKKLGNFNVEEDPEKPVLIVKKSAGGSA [r15_554_JUSTAS] | 2.95 ± 0.059 kcal/mol | 1.7 ± 0.087 kcal/mol | 2.6 ± 0.098 kcal/mol
9 | SSSSMKTVFDPNRPYPRTVLVTFLPDGTVVITAPGKKLSTVKVEIEPPPPLELRPRVSPNGERSPGYLRLGS [r1_496_JUSTAS] | 1.76 ± 0.14 kcal/mol | 1.1 ± 0.18 kcal/mol | 1.47 ± 0.16 kcal/mol
10 | SSSGTDPLTVRVTVTLTDPSTGKETLLEYEVEVPPGTPVEVELPDVPPSASVTVEVYDPGGVRIGTRTLPSA [r9_478_JUSTAS] | 1.78 ± 0.11 kcal/mol | 1.81 ± 0.14 kcal/mol | 1.95 ± 0.4 kcal/mol
11 | SASSSMSSSSTSRTVPTPEGPVSITITFYPSTGKYTATITDPATSTATTVPSPGSSVEEAIAEAIALLASAG [r14_65_JUSTAS] | 2.39 ± 0.022 kcal/mol | 1.94 ± 0.091 kcal/mol | 2.21 ± 0.088 kcal/mol
12 | SAGGGSISPAIVAALRAAGASLEEIVAYLNEQGYPIASVLGEEEHHHHHHITLLLPETGETVTVELHSAGGS [r8_179_JUSTAS] | 3.029 ± 0.028 kcal/mol | 2.43 ± 0.068 kcal/mol | 2.79 ± 0.096 kcal/mol
13 | SAGGSAGGSAGGSLELTFLLEDGTLAKVRIELNEDGELSISVELFELPAPEPVEVRFYPESAGGSAGGSAGG [r7_79_TrROS_Hall] | 2.8 ± 0.084 kcal/mol | 1.42 ± 0.051 kcal/mol | 2.42 ± 0.18 kcal/mol
14 | SAGGGKTVVLVTHPDGTPTTITFDPEKPVATITYPDGTTETLPVPPDKTIADLAKALPADYTAVFAPASAGG [r13_696_TrMRF] | 0.696 ± 0.069 kcal/mol | -0.338 ± 0.13 kcal/mol | 0.419 ± 0.13 kcal/mol
15 | SAGGSAGGKEFKIVKVEIEEREDGRLKIHITVEPGATPEEVKKALEELGFEVEEVEVVEVEEEESAGGSAGG [r6_543_TrROS_Hall] | 2.368 ± 0.023 kcal/mol | 1.93 ± 0.086 kcal/mol | 2.24 ± 0.092 kcal/mol
16 | SAGGMLRIRIDGREIEIGMTVEEILAAIEKELGREISPELREALRKAKTPEEIVEALRKLGLKIEIESAGGS [r16_601_TrROS_Hall] | 5.17 ± 0.086 kcal/mol | 3.66 ± 0.08 kcal/mol | 4.8 ± 0.087 kcal/mol
17 | SAGGSAGGSASTITITTPSGEKVKVTLTSLPTPTTLATITVTSTGKTYTIVIAPDGTITLASAGGSAGGSAG [r3_15_JUSTAS] | 3.66 ± 0.026 kcal/mol | 3.4 ± 0.067 kcal/mol | 3.54 ± 0.075 kcal/mol
